According to US20240150495A1:

What was measured:
[1] = target: human ανβ3 integrin (Chemicon) (human) (UniProt P06756); experiment: ELISA on coated human ανβ3 integrin (1 ug/ml), binder at 0.625 µg/ml; positive control
[2] = target: human ανβ3 integrin (Chemicon) (human) (UniProt P06756); experiment: ELISA on coated human ανβ3 integrin (1 ug/ml), binder at 2.500 µg/ml; positive control
[3] = target: human ανβ3 integrin (Chemicon) (human) (UniProt P06756); experiment: ELISA on coated human ανβ3 integrin (1 ug/ml), binder at 0.039 µg/ml; positive control
[4] = target: human ανβ3 integrin (Chemicon) (human) (UniProt P06756); experiment: ELISA on coated human ανβ3 integrin (1 ug/ml), binder at 0.002 µg/ml; positive control
[5] = target: human ανβ3 integrin (Chemicon) (human) (UniProt P06756); experiment: ELISA on coated human ανβ3 integrin (1 ug/ml), binder at 0.010 µg/ml; positive control
[6] = target: human ανβ3 integrin (Chemicon) (human) (UniProt P06756); experiment: ELISA on coated human ανβ3 integrin (1 ug/ml), binder at 0.156 µg/ml; positive control
[7] = target: human ανβ3 integrin (Chemicon) (human) (UniProt P06756); experiment: ELISA on coated human ανβ3 integrin (1 ug/ml), binder at 10 µg/ml; positive control

Sequence of human ανβ3 integrin (Chemicon) (human) (P06756 31-1048 limits assumed, chain 1 of 2): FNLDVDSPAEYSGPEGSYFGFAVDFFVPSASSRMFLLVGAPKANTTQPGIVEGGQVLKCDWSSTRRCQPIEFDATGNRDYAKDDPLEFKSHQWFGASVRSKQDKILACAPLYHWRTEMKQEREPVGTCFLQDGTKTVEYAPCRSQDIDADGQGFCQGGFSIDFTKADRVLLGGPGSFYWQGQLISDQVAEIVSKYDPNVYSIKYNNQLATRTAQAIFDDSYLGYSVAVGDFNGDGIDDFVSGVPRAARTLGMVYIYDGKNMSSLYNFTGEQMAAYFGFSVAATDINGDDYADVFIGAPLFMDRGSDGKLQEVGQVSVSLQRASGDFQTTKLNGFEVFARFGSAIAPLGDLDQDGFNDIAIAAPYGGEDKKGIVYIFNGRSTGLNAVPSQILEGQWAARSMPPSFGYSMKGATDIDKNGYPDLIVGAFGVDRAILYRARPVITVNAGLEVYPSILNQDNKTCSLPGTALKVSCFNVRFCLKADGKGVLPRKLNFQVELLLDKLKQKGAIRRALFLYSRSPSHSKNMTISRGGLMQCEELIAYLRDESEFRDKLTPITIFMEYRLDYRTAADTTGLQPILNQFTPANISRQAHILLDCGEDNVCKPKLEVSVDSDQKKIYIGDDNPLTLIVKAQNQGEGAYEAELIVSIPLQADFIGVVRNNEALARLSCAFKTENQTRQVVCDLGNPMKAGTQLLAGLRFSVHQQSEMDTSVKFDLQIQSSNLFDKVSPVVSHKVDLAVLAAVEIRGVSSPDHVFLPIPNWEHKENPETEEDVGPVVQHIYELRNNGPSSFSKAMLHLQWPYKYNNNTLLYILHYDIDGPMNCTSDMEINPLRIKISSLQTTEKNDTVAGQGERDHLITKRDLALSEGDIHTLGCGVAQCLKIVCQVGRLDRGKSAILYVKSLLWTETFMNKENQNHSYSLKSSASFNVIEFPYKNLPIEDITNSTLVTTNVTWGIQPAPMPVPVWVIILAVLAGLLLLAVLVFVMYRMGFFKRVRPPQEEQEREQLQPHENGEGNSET
Sequence of human ανβ3 integrin (Chemicon) (human) (P05106 27-788 limits assumed, chain 2 of 2, further chain): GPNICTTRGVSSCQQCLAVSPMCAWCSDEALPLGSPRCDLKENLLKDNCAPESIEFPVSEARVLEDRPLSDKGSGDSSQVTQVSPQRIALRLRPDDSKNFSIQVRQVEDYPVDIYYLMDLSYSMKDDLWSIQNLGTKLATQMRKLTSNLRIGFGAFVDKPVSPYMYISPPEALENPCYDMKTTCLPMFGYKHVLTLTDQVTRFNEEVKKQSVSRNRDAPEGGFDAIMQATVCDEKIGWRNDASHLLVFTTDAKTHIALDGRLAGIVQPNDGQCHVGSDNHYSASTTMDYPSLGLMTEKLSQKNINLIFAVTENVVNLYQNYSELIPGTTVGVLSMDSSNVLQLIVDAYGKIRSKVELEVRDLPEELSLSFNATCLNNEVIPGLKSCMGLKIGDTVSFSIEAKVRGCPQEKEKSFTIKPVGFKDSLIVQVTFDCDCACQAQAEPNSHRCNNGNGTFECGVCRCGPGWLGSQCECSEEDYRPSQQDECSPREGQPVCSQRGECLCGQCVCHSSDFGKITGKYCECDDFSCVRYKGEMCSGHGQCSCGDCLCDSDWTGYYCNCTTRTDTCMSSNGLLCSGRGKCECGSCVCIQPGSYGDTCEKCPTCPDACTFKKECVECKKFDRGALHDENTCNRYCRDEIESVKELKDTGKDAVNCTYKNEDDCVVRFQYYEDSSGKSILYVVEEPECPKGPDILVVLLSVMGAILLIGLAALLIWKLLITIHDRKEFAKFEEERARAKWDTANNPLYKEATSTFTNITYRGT

Question: Which OD 450 [1] does the source give for “commercial mouse anti human ανβ3 integrin mAb LM609 (Chemicon) (antibody)” here?
Answer: Its OD 450 is 0.657 OD 450.

Question: And the OD 450 [2]?
Answer: Its OD 450 is 0.644 OD 450.

Question: What about the OD 450 [3] of the same substance?
Answer: Its OD 450 is 0.391 OD 450.

Question: What about the OD 450 [4] of the same substance?
Answer: The OD 450 was 0.077 OD 450.

Question: And the OD 450 [5]?
Answer: The OD 450 was 0.157 OD 450.

Question: What about the OD 450 [6] of the same substance?
Answer: The OD 450 was 0.626 OD 450.

Question: And the OD 450 [7]?
Answer: The OD 450 was 0.647 OD 450.
